Results reported in patent US20140221271A1.
Read-outs that look alike come from different tables or passages of the source.

Key:
Kv1.3 K+ ion channel [1] = experiment: cell-based or functional assay
Kv1.3 K+ ion channel [2] = experiment: cell-based or functional assay; remark: listed apart in the source

Molecule	IC50, reduction in peak whole-cell Kv1.3 current at 40 mV (patch-clamp) (Kv1.3 K+ ion channel [1]) [nM]	IC50, reduction in peak whole-cell Kv1.3 current at 40 mV (patch-clamp) (Kv1.3 K+ ion channel [2]) [nM]
ShK-186 ((phospho-Tyr)-AEEA-ShK-NH2) (peptide)	0.069	
RSCIDTIPKSRCTAFQCKHSMKYRLSFCRKTCGTC (modifications not checked) [ShK-221-gadolinium (DOTA-conjugate of ShK-198 coordinated with gadolinium)]		0.0582
RSCIDTIPKSRCTAFQCKHSMKYRLSFCRKTCGTC (modifications not checked) [ShK-221-indium (DOTA-conjugate of ShK-198 coordinated with indium)]		0.0638
